Reference: article PMC9898751 (The Journal of Biological Chemistry, 2022)
No end group written: not given here.

Target: T1, PHF2(1–70), PHD domain of human PHF2 (residues 1–70) (human, UniProt O75151 1-70)
T1 sequence: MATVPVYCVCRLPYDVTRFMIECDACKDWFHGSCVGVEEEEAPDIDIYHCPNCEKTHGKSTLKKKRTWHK
Assay: ITC

B1: H3(1-12)K4me3 peptide (12-mer of the N-terminal tail of histone H3, trimethylated at lysine 4) (peptide)
peptide: ARTK(me3)QTARKSTG
B1 gave a Kd of 0.64 µM.
